Experiment: label from the status in PepcDB records
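Also: failed if final PepcDB status was selected cloned or expressed and not failed if soluble or beyond.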

Sequence | protein production
MLIFGFIGLFFLNIFSLHAQGIVTNKDAQEEFKWALNSYNNGIYDDALLSFKKILSFDPNNLDYHFWTGNVYYRLGYVEEALMEWRNLKDQGYKVPYLRHLISTIEQRRGIFSNYELNFKKLVKVASLDNSIYKRPHGYQITSLRADKYGGYYAANFVGNEILYFDVNNNVNALVKDGFSYLKSPYDVIEANNLLYVTLYSSDEIGVYDKVLGVKRKSIGNKGTKDGELLAPQYMAIDKRNYIYVSEWGNKRVSKFGLEGDFILHFGSRTSGYKGLLGPTGVTYLNENIYVADSLRNTIEVFDTSGNHLYSVFTSIEGIEGLSSDFVGNNVIVSSKDGVYKYSIAKKTITKILKADKMNSKISSSILDANNQMIVSDFNNAKVSVYKSDASLYDSLNVDVRRIIRLGGPKIYVELNVSSKSGLPVVGLKSENFSISNENYYIVNPKVAYNVNASKDINIAVVFDKSSYMKKYDTDQIVGLNALMELSKNKNFSFINATSVPIIDNIESLTNSIRNTSSLGPYSTDAVKTDVSLKLAGSGLMSKSSRRAVVYFSGGILNRKAFEKYSLDTIVSYYKNNDIRFYLILFGNDPINSKLQYLVNETGGAVIPFSSYEGVSKVYDLILEQKTGTYLLEYYYPGPQEPNKYFNLSVEANINQQTGRGEFAYFIN | failed
MLINKTKRAEQNLNNLPFLALQAEQIEFLGSSAEFKTQIIELIRNAKKRIYVTALYWQKDEAGQEILDEIYRVKQENPHLDVKVLIDWHRAQRNLLGAEKSATNADWYCEQRQTYQLPDDPNMFFGVPINTREVFGVLHVKGFVFDDTVLYSGASINNVYLHQFEKYRYDRYQKITHAELADSMVNFINDYLLDFSAVYPLDVTNRPRTKEIRGNIRAYRKDLAQNGEYSLKSAVKLPNVLSVSPLFGLGASGNELNQVIEDLFLQVQKKLVICTPYFNFPRTLQHKIATLLENGKRVEIIVGDKVANDFYIPPEQPFKMAGALPYLYESNLRRFCEKFETQIESGQLVVRLWRDGDNTYHLKGVWVDDRYILLTGNNLNPRAWRLDAENGLLIYDPQQQLLAQVEKEQNQIRQHTKVLKHYTELEELNQYPEPVQKLLKKFARIKADKLVKMILLEHHHHHH | not failed
MLISHSDLNQQLKSAGIGFNATELHGFLSGLLCGGLKDQSWLPLLYQFSNDNHAYPTGLVQPVTELYEQISQTLSDVEGFTFELGLTEDENVFTQADSLSDWANQFLLGIGLAQPELAKEKGEIGEAVDDLQDICQLGYDEDDNEEELAEALEEIIEYVRTIAMLFYSHFNEGEIESKPVLH | not failed
MLKFPLCCSELSLEPKILAFESQLVSGRRDTIKVSAGKIGNFSLGSIFKSCETCGAKGAIECPGCKGTGKNKKNGNMFERWKCFDCQGFGMKSCPKCGKGGLTPEQRGER | failed
MLKGIPKIIPPELLKVLCEMGHGDQLVIADGNFPAESIGKNAIVVRMDGHGGGEILKAILTVFPLDTYVDKPATLMEKVPGDTVATPIWDVYAGLIKEHDERGADAIGSLERFAFYEQAKNAYCVIASGESAQYANLILQKGVVFNAE | not failed
MLKHFGSKVRNLRVTRNITREDFCGDETELSVRQLARIESGQSIPNLTKAHYIAKQLNVKLDILTGGESLELPKRYKELKYLILRIPTYADAERLKLRECQFDHIFEEFYDNLPEDECLAIDSLQAKFEVYQTGDINFGVEVLCECFDKVKYKEKYTLNDLIIIDLFLTCAVVSKFNNRAFTKEVFQTICKTLISQNHKLTAEDLFWFNHVLLNCVFVGLCLNSEECLAEMLEVSRQTMVSTHDFHKMPLYFMYQWKYFITIDNDIKSAENAYQQSIMFSKMIDDKHLIKKLELEWQEDITGH | failed
MLKKLIEKVKSLTSVIKIVFFISVLVLIIVEMIHLKRTISVEQLKSVFGQLSPMNLFLIILVGVIAVLPTTGYDFVLNGLLRTDKSKRYILQTSWCINTFNNLSGFGGLIDIGLRMAFYGKKGQEKSDLREVTRFLPYLISGLSFISVIALIMSHIFHAKASVDYYYLVLIGASMYFPVIYWISGHKGSHYFGDMPSSTRIKLGVVSFFEWGCAAAAFIIIGYLMGIHLPVYKILPLFCIGCAVGIVSLIPGGLGSFELVLFTGFAAEGLPKETVVAWLLLYRLAYYIIPFFAGIYFFIHYLGSQINQRYENVPKELVSTVLQTMVSHLMRILGAFLIFSTAFFENITYIMWLQKLGLDPLQEQMLWQFPGLLLGVCFILLARTIDQKVKNAFPIAIIWITLTLFYLNLGHISWRLSFWFILLLLGLLVIKPTLYKKQFIYSWEERIKDGIIIVSLMGVLFYIAGLLFPIRAHITGGSIERLHYIIAWEPIALATLILTLVYLCLVKILQGKSCQIGDVFNVDRYKKLLQAYGGSSDSGLAFLNDKRLYWYQKNGEDCVAFQFVIVNNKCLIMGEPAGDDTYIREAIESFIDDADKLDYDLVFYSIGQKLTLLLHEYGFDFMKVGEDALVNLETFTLKGNKYKPFRNALNRVEKDGFYFEVVQSPHSQELLNSLEEISNTWLEGRPEKGFSLGYFNKDYFQQAPIALVKNAEHEVVAFANIMPNYEKSIISIDLMRHDKQKIPNGVMDFLFLSLFSYYQEKGYHYFDLGMAPLSGVGRVETSFAKERMAYLVYHFGSHFYSFNGLHKYKKKFTPLWSERYISCSRSSWLICAICALLMEDSKIKIVK | failed
MLKKLLLVSTVLLLSACSSRQYSESSLTQSKIDIYEQTQNYVALSDLYKAELKKEDSEEIREALAAALLHLEDPESALFYLKPNIENGASFQSYYLQASALGDLGKYPQAIKAALLSLEENPDNPETENLLGILYGHEYQYEKSRRYFQKAQLHFYDSNTIANNLAVLDIAEGNYKRAAQRLLPVYRSGQANEQVMANLILSMAKEQNLEFIQAVLGDKHTKKEIERIYQSLQRFNSLDIDTKKSV | failed
MLKLHLSEEERVIFASNLVASKKRFTKMEKGRFGNFLDNAKIISHIINPCLYDVEDATGYFLYSFTLNDERPK | failed
MLKLSCNVTDHIHNLFSNSRRIFVPVHRQTRPISCFQLKKEPLRAILSADHGNSSVRVADTVSGTSPADRLRFGRLMEDGFSYKEKFIVRSYEVGINKTATIETIANLLQEVACNHVQNVGFSTDGFATTLTMRKLHLIWVTARMHIEIYKYPAWSDVVEIETWCQSEGRIGTRRDWILKDCATGEVIGRATSKWVMMNQDTRRLQRVTDEVRDEYLVFCPPEPRLAFPEENNSSLKKIPKLEDPAQYSMLGLKPRRADLDMNQHVNNVTYIGWVLESIPQEIIDTHELKVITLDYRRECQQDDIVDSLTTSETPNEVVSKLTGTNGSTTSSKREHNESHFLHILRLSENGQEINRGRTQWRKKSSR | failed
MLKSKRKEIILSRLEQNKSVTLDELTSILETSESTVRRDLDELESAGFLKRVHGGAELPYSLGQELSNQEKAIKNVQKKLDIARQTAKLIAKQDVIFIDAGTTTELLIDFLPHEQLTVVTNSIHHAAKLVDRGIKTIIIGGAVKHSTDASIGQVAINQIRQITVDKAFLGMNGIDEVYLTTPDLEEAAIKEAIINNSQQTFILMDSSKIGQVTFAKVKEINDINLVTNKTDSELMTIIKEKMKVIQV | failed
MLKTPSDAAVAGCLSLLLEVSGNPKAGNVDREHDFDDLKFEHFLASAAGAFPAFLEVAEKRIIGEGVLRAVKESMRWHRAENVHFGAFLLLVPLISSWDAG | not failed
MLKTYQKLLAMGIFLIVLCSGNAAFAATNQVGGLSNVGFFHDYLIEPFSALLKGVAGLFHGEYGLSIILVTIIVRIVVLPLFVNQFKKQRIFQEKMAVIKPQVDSIQVKLKKTKDPEKQKELQMEMMKLYQEHNINPLAMGCLPMLIQSPIMIGLYYAIRSTPEIASHSFLWFSLGQSDILMSLSAGIMYFVQAYIAQKLSAKYSAVPQNPAAQQSAKLMVFIFPVMMTIFSLNVPAALPLYWFTSGLFLTVQNIVLQMTHHKSKKTAALTESVK | failed
MLLAMALLIIGLLLVAYGADRLVFAASILCRTFGIPPLIIGMTVVSIGTSLPEIIVSAAASLHGQLDLAVGAALGSNITNILLILGLAALVRPFTVHSDVLRRELPLMLFVSVVAGSVLHDGQLSRSDGIFLLLLAVLWLLFIVKIARLAERQGNDSLTREQLAELPREGGLPVAFLWLGIALVIMPMATRMVIDNATVLANYFAMSELTLGLTVIAVGTSLPELATAIAGVRKGENDIAVGNLIGANIFNLAIVLGLPALIAPGEINPLAFGRDYSVMLLVSVVFALLCWRHPRQIGRGAGILLTGGFIVWLAMLYWLSPLLVG | failed
MLLENFYKIIHIKEREDGKQEIEIELNPGHVLYQGHFPGQPVVPGVCTLQIIKESAEQIASQPLQYVQIASSKFLSAINPLETPLLQLFIRLEKTEEHLFKLQAEGICNGKEFIKLKAVLMASKYQLEHHHHHH | not failed

Reference: a protein production outcome set (Wang et al. 2014)
